Assay results taken from paper PMC5253651, “Human farnesyl pyrophosphate synthase is allosterically inhibited by its own product” (Nature Communications, 2017).

Biological target: the molecule itself
Test: crystal structure; human FPPS (10 mg/ml) crystallised with 1 mM FPP and 2 mM MgCl2, sitting drop, 22 °C; 1.9 Å; one subunit in the asymmetric unit, biological assembly a homodimer

B1: Human farnesyl pyrophosphate synthase (enzyme)
chain: MNGDQNSDVYAQEKQDFVQHFSQIVRVLTEDEMGHPEIGDAIARLKEVLEYNAIGGKYNRGLTVVVAFRELVEPRKQDADSLQRAWTVGWCVELLQAFFLVADDIMDSSLTRRGQICWYQKPGVGLDAINDANLLEACIYRLLKLYCREQPYYLNLIELFLQSSYQTEIGQTLDLLTAPQGNVDLVRFTEKRYKSIVKYKTAFYSFYLPIAAAMYMAGIDGEKEHANAKKILLEMGEFFQIQDDYLDLFGDPSVTGKIGTDIQDNKCSWLVVQCLQRATPEQYQILKENYGQKEAEKVARVKALYEELDLPAVFLQYEEDSYSHIMALIEQYAAPLPPAVFLGLARKIYKRRK
notes: Human farnesyl pyrophosphate synthase (FPPS), UniProt P14324 as printed; Crystallised with the small molecule FPP in the allosteric pocket; One subunit in the asymmetric unit; the homodimer arises by crystallographic symmetry; also called FPPS; human FPPS; source: E. coli BL21 (DE3), purified (Ni-nitrilotriacetic acid, Superdex 200 size-exclusion chromatography)
binding result: binds
